Source: publication PMC4847155 (Biochemical Journal, 2016)

Target: Bax (Homo sapiens, UniProt Q07812)
Type: biochemical
Details: 100 nM Bax, 10 μM compound or 20 nM cBid/Bim, no membranes, DSS

Chain of Bax (Q07812 whole entry): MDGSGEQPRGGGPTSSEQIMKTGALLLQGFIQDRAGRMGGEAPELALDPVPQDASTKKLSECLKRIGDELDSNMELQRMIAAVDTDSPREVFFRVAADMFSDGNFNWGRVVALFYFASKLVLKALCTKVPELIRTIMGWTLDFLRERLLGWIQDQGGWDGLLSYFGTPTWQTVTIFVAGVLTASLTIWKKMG

formation of dimers and higher-order Bax oligomers in solution: no effects
B1: cBid: known Bax activator protein, pro-apoptotic BH3 protein, recombinant (protein, UniProt P55957 61-195, looked up)
BH3-interacting domain death …: GNRSSHSRLGRIEADSESQEDIIRNIARHLAQVGDSMDRSIPPGLVNGLALQLRNTSRSEEDRNRDLATALEQLLQAYPRDMEKEKTMLVLALLLAKKVASHTPSLLRDVFHTTVNFINQNLRTYVRSLARNGMD
modifications: BH3-interacting domain death agonist p15
